Reference: the nanobody polyreactivity screen of Harvey et al. (2022)

Assay: yeast display, Sf9 membrane polyspecificity reagent, FACS + sequencing; frameworks hold sequencing errors
In short: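 Using colony PCR, genes from sorted yeast display clones were amplified, then sequenced on MiSeq at 2 × 250 and filtered by CDR length. The clones had been stained with 10% biotinylated, detergent-solubilized Sf9 membrane reagent for 1 hour at 4 °C and sorted by FACS into low and high (top ~1%) gates on anti-HA and streptavidin fluorescence. Polyreactivity labels come from the gate of origin.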

| Sequence | polyreactivity (PSR sort gate) |
| --- | --- |
| QLHLVESGGGLVQAGGSLRLSCAASGRSFGLNALGRSRQAHGKERELVAVISFGDGGTYYADSVKGRFTISLDNAKNTVYLQMNSLKPEDTAVYYCATDYQSTSVWGGHFVINPYDYWGQGTKVTVSS | low polyreactivity |
| QLHLVESWGGLVQAGGSLRLSCAASGILFQNNDMGSYRQAPGKERELVAAITGSGGSTYYADSVKGRFTISRDNATNTVYLQMNSLKPEDTAVYYCNAVWEYYGKSDYWGQGTQVTVSS | low polyreactivity |
| QLQHVDSGGGLVQAGGSLRLSCATSGIIFYDYDIGWSRQAPEKESELVARISRNGGRTYYADSVKGRFTISRDNAKNTVYLQMNSLNPEDTAVYYCNGVYFVTTSPGSDYWGQGTQVTVSS | high polyreactivity |
| QLQHVESGAVLVQAAGSLRLICAASGLIFPYNAMGWSRQAPGKERELVAAIDTRASSTYYADSVKGRFTISRDNAKNSVYLQMNSLKPEDTAVYYCATRRWGRRKGVGYWGQGTQVTVSS | high polyreactivity |
| QLQHVESGRGLVQAGGSLRLSCADSGRTYGGYDMGWYRQATVKERELVAAISYSGGSTYYADSVKGRFTISRDNAKNTVYLEMNSLKPEDTAVFYCAADGYDAYYWGQGTQVTVSS | low polyreactivity |
| QLQHVETGGGLVQAGGSLRLSCAASGSTFRSYVMGWYRQAPGKERELVAAISWITGSTYYADSVKGRFTISRDNAKNTVYLQMNSLKPEDTAVYDCAARYRTQSSLYYWGQGTQVTVSS | high polyreactivity |
| QLQIVESGGGLVQAGGSLRLTCAASGSTFPLYAMGWYSQAPGKEREFVAAIRWIGGSTYYADSVKGRFTISRDNAKNSVYLLMNSLKPEDTAVYYGAADYVVSAFDYWGQGTQVTVSS | low polyreactivity |
| QLQLQESGGGLVQAGGSLRLSCAASGPITRRSTMGWYRQAPRKVRELVTAITRGTNTNYADSVKGRFTISRDNAKNTEYLQMNSLKPEDTAVYYCAAYGVLKPSRGDAVFLRYLGQGTQVTVSS | low polyreactivity |
| QLQLQESGGGLVQAGGSLRLSCAASGSNSRYYDMGWYRQAAGKEREFVAGISGGAITYYEDSVKGRFTISRDNANITVYVQMNSLKPEDTAVYYCAADTGDYQYHSYWGQGTQVTVSS | low polyreactivity |
| QLQLVDSGGGLVQAGGSLRLSCAASGFTLDYYAMGWYRQAPGKESELVAAISWSGGRTYYADSVKGRFTISRDNAKNTVYLQMNSLKPEDTAVYYCNASPYGRKYGILADGDYWGQGTQVTVSS | high polyreactivity |
| QLQLVESAAGLFQAGVSHRLSCDASGSTLSQNSMGGYRQAPGKEREFVADISGSGDSTYYADSVKGRFTISRDNAKNTVYLQMNSLKAEDTAVYYCATPSPHVGLKWEYDYWGQGTQVTVSS | low polyreactivity |
| QLQLVESGAGLVQAGGSLRLSCAASGSTFTVYGMAWYRQAPGKERELVAAITYSGGSTYYADSVKGRFTISRDNAKHTVYLTMNSLKPEDTGVYYCAAAGSQYYRRWYDYWGQGTQVTVSS | low polyreactivity |
| QLQLVESGGGLVLAGGSLRLSCAASGYLFQRTAKGCYRQATGKVRELVSTISRGGARTSYAYSVKGRFTISSDNANNTVYLQMNSLKPEDTAVYYCAKSYRKAGGMWSYGYWGQGTQVTVSS | high polyreactivity |
| QLQLVESGGGLVQAGGSLRISCAASGSTFFLNAMGWYRQAPGKERELVAAITSGSGNTYYADSVKGRFTISRDNAKNTVYLQMNSLKPADSAVYYCNVTRFVYRPYGLDRDDYWGQGTQGTVSS | low polyreactivity |
| QLQLVESGGGLVQAGGSLRLSCAASASTFYRYAMCCYIQAPGKERELVAGISSSGGSTYYADSVKGRFTISRDNAKNTVYLQMNSLKPEDTAVYYCAAVGQWGYGYWGQGTQVTVSS | high polyreactivity |
| QLQLVESGGGLVQAGGSLRLSCAASGFIFADYAMGWYRQAPGKERELVAAISSNGGSTYYADSVKGRFTISRDNAKNTVYLQMNSLKPEDTAVYYCAVRHRYYKDYEFDYWGQGTQVTVSS | high polyreactivity |
| QLQLVESGGGLVQAGGSLRLSCAASGFTFGVYAMGWYRQAPGKERELVAAISTTVGSTYYADSVKGRYTISRDNAKNTVYLQMNSLKPEDTAVYYCAAEYTGYISYYIYEDWGQGTQVTVSS | low polyreactivity |
| QLQLVESGGGLVQAGGSLRLSCAASGFTFSGYAMGWYRQAPGKERELVAAITKRGGSTYYADSVKGRFTISRDNAKNTVYLQMNSLKPEDTAVYYCAARGYISRYDARANAVQGNYWGQGTQVTVSS | high polyreactivity |
| QLQLVESGGGLVQAGGSLRLSCAASGFTFYVNAMGWYRQDPGKETEFVAAIDWSDTSTYYADSVKGRFTISRDNAKNTVYLQMISLKPVDTAVYYCAADFSPYDYDYWGQGTQVTVSS | high polyreactivity |
| QLQLVESGGGLVQAGGSLRLSCAASGGIFPNYVMGWYRKAPGKERELVAGITSGGNTNYADSVKGRFTISRDNAKNTVYLQMNSLKPEDTAVYYCAADGYRYSVYLIRNPMDYWGQGTQVTVSS | low polyreactivity |

| Sequence | polyreactivity (PSR sort gate) |
| --- | --- |
| QLQLVESGGGLVQAGGSLRLSCAASGGTFQPNAMGWYIQAPGKESELVAAISWSDGSTYYADSVKGRFTISRDYAKNTVYLQMNSLKPEDTAVDYCAADFTYYDSPYRDYNYESWGQGTQVTVSS | low polyreactivity |
| QLQLVESGGGLVQAGGSLRLSCAASGIIFRYNTKGSYIQAPGKESELVAAIRTTGGSTYYADSVKGRFTISRDNAKNTVYLQMNSLKPEDPAVYYCAAVGFGRQGQEDYWGHGTQVTVSS | low polyreactivity |
| QLQLVESGGGLVQAGGSLRLSCAASGITFQWYAMGWYRQAPGKERELVARISSGGSTNYADSVKGRFTISCDNAKYTVYLQMNSVKPEDTAVYYCNARYFWFDYWGQGTQVTVSS | high polyreactivity |
| QLQLVESGGGLVQAGGSLRLSCAASGLIQANYAMGWYRQAPGKERELVAAISSSGGSTYSADSVKGRFSISRDNAKNTVYLQMKSLKPEDTAVYYCAAYPLYRRRWTGDYWGQGTQVTVSS | high polyreactivity |
| QLQLVESGGGLVQAGGSLRLSCAASGNTYFWYAMGWYRQAPGKERELVAAITSGGSTTYADSVKGRFTISRHNGMNTVYLQMNSLKPEDTAVYYCAQYTRDIFAVTFYEGEDYWGQGSQVTVSS | low polyreactivity |
| QLQLVESGGGLVQAGGSLRLSCAASGRIFHSYTMGCYTQAPGKHRELVSAITWSCGSTYYADSVKGRLTISRDHAKNTVYFQMNSLKAEDTSVFYCNAKRRVFRLSVTSAFDYWGQGTQVTVSS | high polyreactivity |
| QLQLVESGGGLVQAGGSLRLSCAASGRIFQRYAMGWYRQAPGKERELVAGITSSGGSTYYADSVKGRFTISRDNAKNTVYLQMNSLKPEDTAVYYCNAGGELRYYGYRAGGTTRSYDYWGQGTQVTVSS | low polyreactivity |
| QLQLVESGGGLVQAGGSLRLSCAASGRTFERNAMGWYRQARGQERELVAAITWSGVSTYYADSVKGRFTISRDNAKNTVYLQMNSLKPEDTAVYYCAADWDWRFHRMNYWGQGTQVTVSS | low polyreactivity |
| QLQLVESGGGLVQAGGSLRLSCAASGRTLSRYAMGWYRQAPGNERELVAVISSRGGSTYYADSVKGRFTISRDNAKNTVYLRMNSLKPEDTAVFYCAAVRNRHGYDYWGQGTQVTVSS | high polyreactivity |
| QLQLVESGGGLVQAGGSLRLSCAASGSIFDGNAMGWYRQAPGKERELVAAITNSGGSTYYADSVKGRFTISRDNAKNTVYLQMNSLKPEDTAVYYCNALPFAWRRYRWVRTMYYWGQGTQVTVSS | low polyreactivity |
| QLQLVESGGGLVQAGGSLRLSCAASGSIFNIYAMGWYRQAPGKERELVATITGIADYTYYADSVMGRFTISRDNAKNTVYLQMNSLKPEDTAVYYCAADKYVSEYDYWGQGTQVTVSS | low polyreactivity |
| QLQLVESGGGLVQAGGSLRLSCAASGSTFTWKAMGWYRQAPGKERELVAAITSGCRTYYADSVKGRFTISRDNAKNTVYIEMNSLKPEDTAVYYCAAKVRHYYSASNYYYWGQGTQVTVSS | high polyreactivity |
| QLQLVESGGGLVQAGGSLRLSCAASGSTFVLYAKGWYRQAPGKERELVAAITWSGDDTYYADSVKGRFTISRDNEKNTVYLQMTSLKPEDTAVYSCAADGRGDLYVWPGIGGDYWGQGTQVTVSS | low polyreactivity |
| QLQLVESGGGLVQAGGSLRLSCAASGSTSVTNAMGWYRQAPGKEREFVATINYSGTSTYYADSVKGRFTISRDNAKNTVYLQMNSLKPEDTAVYYCNAHDFGFYRFSLPGYDYWGQGTQVTVSS | low polyreactivity |
| QLQLVESGGGLVQAGGSLRLSCAASGYTFKWYAMGCYRQAPGKERELVAAIRGSGGSSYYAVSVKGRFTISRDNAKNTVYLQMNSLKPEDTAGYYCNAVLRWAQNPRIFLGYDYWGQGTQVTVSS | high polyreactivity |
| QLQLVESGGGLVQAGGSLRLSCAASVFTFYVNAMGWYRQAPGKERELVAAISSSGTRTYYADSVKGRFTISRDNAKNTVYLKMNSMKPEDTAVYYCAARAYQHYKWGQGTQVTVSS | high polyreactivity |
| QLQLVESGGGLVQAGGSLRLSCAASVRTFNSYAMGRYRQAPGKERELVAGISTSGDNTYYADSVKGRFTISRDNAKNTVFLQMNSLKPEDSAVYYCATQFPPSTIYDYWGQGTQVTVSS | low polyreactivity |
| QLQLVESGGGLVQAGGSLRLSFAAYGRTFTSNAKGWSRPAPGKERELVAGITSSTGNTHYADSVKGRFTSSRDNAKNTVNFQMNSLKPEDTAVFYCAAVYYVRGYWGTYSRWYDYWGQGTQVTVSS | high polyreactivity |
| QLQLVESGGGLVQAGGSLRLTCAASGSIFEVKAMGWYRQAPGTERELVATITYSGGSTYYADSVKGRFTISRDNAKKTVYFQMNSLKPEDTAVYYCATHYVVWELYIYDYWGQGTQVTVSS | low polyreactivity |
| QLQLVESGGGLVQAGGSLRLTCAASGSTFTKYDMGWYRQAPGKERELVAAIRSGGDTNYADSVKGRFTISRDNAKYTVYLQMNSLKPEDTAVYYCNTLRNWYYQFDFNYWGQGTQVTVSS | low polyreactivity |
